Source: patent US20150166621A1 (Hoffmann-La Roche, published 2015)
Square brackets hold non-standard residues; d marks the D form. Nle = CCCC[C@H](N)C(=O)O

B1: peptide of SEQ ID NO: 7 (peptide)
peptide: Ac-KRYDREFLLAFQF[Nle]VYDLGLRRLRQRRRLRR-NH2
SMILES: CCCC[C@H](NC(=O)[C@H](Cc1ccccc1)NC(=O)[C@H](CCC(N)=O)NC(=O)[C@H](Cc1ccccc1)NC(=O)[C@H](C)NC(=O)[C@H](CC(C)C)NC(=O)[C@H](CC(C)C)NC(=O)[C@H](Cc1ccccc1)NC(=O)[C@H](CCC(=O)O)NC(=O)[C@H](CCCNC(=N)N)NC(=O)[C@H](CC(=O)O)NC(=O)[C@H](Cc1ccc(O)cc1)NC(=O)[C@H](CCCNC(=N)N)NC(=O)[C@H](CCCCN)NC(C)=O)C(=O)N[C@H](C(=O)N[C@@H](Cc1ccc(O)cc1)C(=O)N[C@@H](CC(=O)O)C(=O)N[C@@H](CC(C)C)C(=O)NCC(=O)N[C@@H](CC(C)C)C(=O)N[C@@H](CCCNC(=N)N)C(=O)N[C@@H](CCCNC(=N)N)C(=O)N[C@@H](CC(C)C)C(=O)N[C@@H](CCCNC(=N)N)C(=O)N[C@@H](CCC(N)=O)C(=O)N[C@@H](CCCNC(=N)N)C(=O)N[C@@H](CCCNC(=N)N)C(=O)N[C@@H](CCCNC(=N)N)C(=O)N[C@@H](CC(C)C)C(=O)N[C@@H](CCCNC(=N)N)C(=O)N[C@@H](CCCNC(=N)N)C(N)=O)C(C)C
B2: peptide of SEQ ID NO: 22 (peptide)
peptide: Ac-KRYDREFLLAFQF[Nle]RRLRQRRRLRRERVRA-NH2
SMILES: CCCC[C@H](NC(=O)[C@H](Cc1ccccc1)NC(=O)[C@H](CCC(N)=O)NC(=O)[C@H](Cc1ccccc1)NC(=O)[C@H](C)NC(=O)[C@H](CC(C)C)NC(=O)[C@H](CC(C)C)NC(=O)[C@H](Cc1ccccc1)NC(=O)[C@H](CCC(=O)O)NC(=O)[C@H](CCCNC(=N)N)NC(=O)[C@H](CC(=O)O)NC(=O)[C@H](Cc1ccc(O)cc1)NC(=O)[C@H](CCCNC(=N)N)NC(=O)[C@H](CCCCN)NC(C)=O)C(=O)N[C@@H](CCCNC(=N)N)C(=O)N[C@@H](CCCNC(=N)N)C(=O)N[C@@H](CC(C)C)C(=O)N[C@@H](CCCNC(=N)N)C(=O)N[C@@H](CCC(N)=O)C(=O)N[C@@H](CCCNC(=N)N)C(=O)N[C@@H](CCCNC(=N)N)C(=O)N[C@@H](CCCNC(=N)N)C(=O)N[C@@H](CC(C)C)C(=O)N[C@@H](CCCNC(=N)N)C(=O)N[C@@H](CCCNC(=N)N)C(=O)N[C@@H](CCC(=O)O)C(=O)N[C@@H](CCCNC(=N)N)C(=O)N[C@H](C(=O)N[C@@H](CCCNC(=N)N)C(=O)N[C@@H](C)C(N)=O)C(C)C
B3: peptide of SEQ ID NO: 24 (peptide)
peptide: Ac-ARVYDLGLRRLRQRRRLRRERVRAKRYDREFLLAFQF[Nle]-NH2
SMILES: CCCC[C@H](NC(=O)[C@H](Cc1ccccc1)NC(=O)[C@H](CCC(N)=O)NC(=O)[C@H](Cc1ccccc1)NC(=O)[C@H](C)NC(=O)[C@H](CC(C)C)NC(=O)[C@H](CC(C)C)NC(=O)[C@H](Cc1ccccc1)NC(=O)[C@H](CCC(=O)O)NC(=O)[C@H](CCCNC(=N)N)NC(=O)[C@H](CC(=O)O)NC(=O)[C@H](Cc1ccc(O)cc1)NC(=O)[C@H](CCCNC(=N)N)NC(=O)[C@H](CCCCN)NC(=O)[C@H](C)NC(=O)[C@H](CCCNC(=N)N)NC(=O)[C@@H](NC(=O)[C@H](CCCNC(=N)N)NC(=O)[C@H](CCC(=O)O)NC(=O)[C@H](CCCNC(=N)N)NC(=O)[C@H](CCCNC(=N)N)NC(=O)[C@H](CC(C)C)NC(=O)[C@H](CCCNC(=N)N)NC(=O)[C@H](CCCNC(=N)N)NC(=O)[C@H](CCCNC(=N)N)NC(=O)[C@H](CCC(N)=O)NC(=O)[C@H](CCCNC(=N)N)NC(=O)[C@H](CC(C)C)NC(=O)[C@H](CCCNC(=N)N)NC(=O)[C@H](CCCNC(=N)N)NC(=O)[C@H](CC(C)C)NC(=O)CNC(=O)[C@H](CC(C)C)NC(=O)[C@H](CC(=O)O)NC(=O)[C@H](Cc1ccc(O)cc1)NC(=O)[C@@H](NC(=O)[C@H](CCCNC(=N)N)NC(=O)[C@H](C)NC(C)=O)C(C)C)C(C)C)C(N)=O
B4: peptide of SEQ ID NO: 23 (peptide)
peptide: Ac-KRYDREFLLAFQF[Nle]VYDLGLRRLRQRRRLRRERVRA-NH2
SMILES: CCCC[C@H](NC(=O)[C@H](Cc1ccccc1)NC(=O)[C@H](CCC(N)=O)NC(=O)[C@H](Cc1ccccc1)NC(=O)[C@H](C)NC(=O)[C@H](CC(C)C)NC(=O)[C@H](CC(C)C)NC(=O)[C@H](Cc1ccccc1)NC(=O)[C@H](CCC(=O)O)NC(=O)[C@H](CCCNC(=N)N)NC(=O)[C@H](CC(=O)O)NC(=O)[C@H](Cc1ccc(O)cc1)NC(=O)[C@H](CCCNC(=N)N)NC(=O)[C@H](CCCCN)NC(C)=O)C(=O)N[C@H](C(=O)N[C@@H](Cc1ccc(O)cc1)C(=O)N[C@@H](CC(=O)O)C(=O)N[C@@H](CC(C)C)C(=O)NCC(=O)N[C@@H](CC(C)C)C(=O)N[C@@H](CCCNC(=N)N)C(=O)N[C@@H](CCCNC(=N)N)C(=O)N[C@@H](CC(C)C)C(=O)N[C@@H](CCCNC(=N)N)C(=O)N[C@@H](CCC(N)=O)C(=O)N[C@@H](CCCNC(=N)N)C(=O)N[C@@H](CCCNC(=N)N)C(=O)N[C@@H](CCCNC(=N)N)C(=O)N[C@@H](CC(C)C)C(=O)N[C@@H](CCCNC(=N)N)C(=O)N[C@@H](CCCNC(=N)N)C(=O)N[C@@H](CCC(=O)O)C(=O)N[C@@H](CCCNC(=N)N)C(=O)N[C@H](C(=O)N[C@@H](CCCNC(=N)N)C(=O)N[C@@H](C)C(N)=O)C(C)C)C(C)C

molecular target: T1, Human eIF4E (aa 28-217) with a C-terminal His tag (human, UniProt P06730 28-217); assay: TR-FRET competition vs biotin-4G2 peptide on HH-eIF4E
T1 construct: also called HH-eIF4E; eukaryotic initiation factor 4E
T1 sequence (P06730 other isoform, or with tags, fused parts or gaps limits assumed): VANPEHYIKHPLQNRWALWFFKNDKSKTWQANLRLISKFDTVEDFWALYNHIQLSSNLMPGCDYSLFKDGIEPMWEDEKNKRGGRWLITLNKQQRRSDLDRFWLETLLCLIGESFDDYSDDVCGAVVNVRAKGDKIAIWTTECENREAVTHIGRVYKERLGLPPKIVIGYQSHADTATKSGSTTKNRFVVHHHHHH
Procedure: Test peptides (1.6 mM stock in DMSO) were diluted 3 fold in series in DMSO and solutions were diluted 4 fold in Assay Buffer (50 mM NaPi, pH 6.5, 50 mM KCl, 1 mM DTT, 0.004% NP40 and 0.5 mg/ml gammaglobulin). […] The samples were incubated at room temperature for 20 minutes.
IC50 values were calculated using Condoseo software (Genedata AG, Basel, Switzerland).

IC50 [nM]	Binder
210	B1
198	B2
19	B3
250	Ac-GAAEAAARVYDLGLRRLRQRRYLRRELLRF-NH2 [peptide of SEQ ID NO: 26]
180	B4
11000	Ac-GAAEAAAYVYDLLLRFLRQRRRLRRERVRA-NH2 [peptide of SEQ ID NO: 25]
